Patent US20140072580, “NOVEL TARGETS FOR TREATMENT OF HYPERCHOLESTEROLEMIA” (THE REGENTS OF THE UNIVERSITY OF CALIFORNIA, published 2014)

Tests used:
[1] = molecular target: T1, LXR/RXR heterodimer (LXRalpha (NR1H3)/RXR; isoforms in EMSA not stated) (UniProt Q9Z0Y9;P28700 Q9Z0Y9:1-445,P28700:1-467); assay: EMSA; binding competed by excess unlabeled Mylip LXRE; protein source not stated; conditions: label: radiolabeled
T1 sequence 1: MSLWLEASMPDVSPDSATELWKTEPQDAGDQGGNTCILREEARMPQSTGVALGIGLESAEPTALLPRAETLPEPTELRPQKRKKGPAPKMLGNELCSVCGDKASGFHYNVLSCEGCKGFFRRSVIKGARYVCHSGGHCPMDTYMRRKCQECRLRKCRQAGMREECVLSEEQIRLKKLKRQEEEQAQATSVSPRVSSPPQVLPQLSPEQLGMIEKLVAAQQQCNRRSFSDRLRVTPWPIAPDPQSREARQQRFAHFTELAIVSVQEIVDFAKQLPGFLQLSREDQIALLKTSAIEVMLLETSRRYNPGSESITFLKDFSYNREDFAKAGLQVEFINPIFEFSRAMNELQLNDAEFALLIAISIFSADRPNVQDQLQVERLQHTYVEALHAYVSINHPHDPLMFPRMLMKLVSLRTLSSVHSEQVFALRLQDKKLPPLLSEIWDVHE
T1 sequence 2: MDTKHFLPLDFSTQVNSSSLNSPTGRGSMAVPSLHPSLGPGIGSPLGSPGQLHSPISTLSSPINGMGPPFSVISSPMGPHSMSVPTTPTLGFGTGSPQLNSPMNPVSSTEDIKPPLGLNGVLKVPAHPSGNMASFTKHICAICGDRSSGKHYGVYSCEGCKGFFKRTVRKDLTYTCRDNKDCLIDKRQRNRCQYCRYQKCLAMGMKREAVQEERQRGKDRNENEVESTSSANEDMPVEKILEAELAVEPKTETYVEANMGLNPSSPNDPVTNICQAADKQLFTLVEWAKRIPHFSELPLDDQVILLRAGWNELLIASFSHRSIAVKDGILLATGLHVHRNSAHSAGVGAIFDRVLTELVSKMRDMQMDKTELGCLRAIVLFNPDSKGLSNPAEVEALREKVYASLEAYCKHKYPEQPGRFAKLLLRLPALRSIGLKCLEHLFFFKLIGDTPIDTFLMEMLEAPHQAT
Description: (§1) It also could not be secondary to induction of SREBP-1c, because oxysterols that block SREBP processing still induced Mylip expression (FIG. 6B). LXRs activate target genes by binding to consensus elements (LXREs) in their promoters. We identified an LXRE approximately 2.5 kb upstream of the mouse Mylip translation start site (FIG. 6C) and generated a reporter construct encompassing this region.
(§2) A 10 Kb promotor region upstream of the mMylip transcription initiation site was analyzed for the presence of LXR binding elements. A consensus DR4 site was identified 2454 upstream of the transcription initiation site. Olignoucleotides encompassing this element were designed, annealed and tested for binding to LXR/RXR heterodimers in a standard EMSA assay. A 2.5 kB promotor fragment upstream of the transcription initiation site containing the identified LXRE was amplified by PCR from BAC clone RP23-17N24 using mMylip-prom-FWD […] (SEQ ID NO:20) or mMylip-prom-ΔFWD […] (SEQ ID NO:21) with the common antisense primer mMylip-prom-REV […] (SEQ ID NO:22). Amplified fragments were cloned as SacI/XhoI fragments into pGL3 basic (Promega). Promotor analysis was done as previously described (Joseph et al. (2002) J Biol Chem 277: 11019).

[2] = molecular target: T1, LXR/RXR heterodimer (LXRalpha …); assay: EMSA; no binding to mutant LXRE; conditions: label: radiolabeled
Description: as §1, §2

B1: Mylip WT DR4 LXRE (dsDNA)
DNA 1: TCCCTACTTAACCTACAATGACCTCAAGTTTC
DNA 2: GAAACTTGAGGTCATTGTAGGTTAAGTAGGGA
- binding result [1]: binds

B2: Mylip MUT DR4 LXRE (dsDNA)
DNA 1: TCCCTACTTATTCTACAATGTTCTCAAGTTTC
DNA 2: GAAACTTGAGAACATTGTAGAATAAGTAGGGA
- binding result [2]: no binding
